Laboratory results: paper PMC6537384, “A GDF11/myostatin inhibitor, GDF11 propeptide-Fc, increases skeletal muscle mass and improves muscle strength in dystrophic mdx mice” (Skeletal Muscle, 2019)

Assays:
recombinant GDF11 = molecular target: T1, recombinant GDF11 (UniProt O95390 299-407); experiment: cell-based or functional assay
T1 sequence (looked up): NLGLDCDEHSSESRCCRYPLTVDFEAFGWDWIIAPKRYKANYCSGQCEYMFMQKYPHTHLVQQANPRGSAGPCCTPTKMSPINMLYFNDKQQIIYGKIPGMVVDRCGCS

recombinant MSTN = molecular target: T2, recombinant MSTN (UniProt O14793 267-375); experiment: cell-based or functional assay
T2 sequence (looked up): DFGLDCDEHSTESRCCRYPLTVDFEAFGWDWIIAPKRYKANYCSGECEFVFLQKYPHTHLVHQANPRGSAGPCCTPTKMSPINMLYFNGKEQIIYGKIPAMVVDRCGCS

B1: GDF11 propeptide-Fc (Fc fusion, human, UniProt O95390 25-298, looked up)
chain: AEGPAAAAAAAAAAAAAGVGGERSSRPAPSVAPEPDGCPVCVWRQHSRELRLESIKSQILSKLRLKEAPNISREVVKQLLPKAPPLQQILDLHDFQGDALQPEDFLEEDEYHATTETVISMAQETDPAVQTDGSPLCCHFHFSPKVMFTKVLKAQLWVYLRPVPRPATVYLQILRLKPLTGEGTAGGGGGGRRHIRIRSLKIELHSRSGHWQSIDFKQVLHSWFRQPQSNWGIEINAFDPSGTDLAVTSLGPGAEGLHPFMELRVLENTKRSRR
average myotube diameter relative to control, C2C12 myotubes expressing GDF11PRO-Fc (AAV6) treated with 100 ng/ml rGDF11 (rGDF11 alone: − 39%) (recombinant GDF11): -1.8% | differentiation index relative to untreated control, C2C12 myotubes expressing GDF11PRO-Fc (AAV6) treated with 100 ng/ml rGDF11 (rGDF11 alone: − 15%) (recombinant GDF11): -1.9% | average myotube diameter relative to control, C2C12 myotubes expressing GDF11PRO-Fc (AAV6) treated with 100 ng/ml rMSTN (rMSTN alone: − 35%) (recombinant MSTN): -5.3% | differentiation index relative to untreated control, C2C12 myotubes expressing GDF11PRO-Fc (AAV6) treated with 100 ng/ml rMSTN (rMSTN alone: − 14%) (recombinant MSTN): -3%
